Source: patent US20250381223A1 (UTC THERAPEUTICS SHANGHAI, published 2025)

What was measured:
[1] = molecular target: T1, BCMA-Fc recombinant protein (human, UniProt Q02223 1-54); test: flow cytometry; CAR-T cells stained with 5 µg/mL BCMA-Fc, anti-human IgG Fc
T1 construct: construct not described; not shown: Fc part
T1 sequence (looked up): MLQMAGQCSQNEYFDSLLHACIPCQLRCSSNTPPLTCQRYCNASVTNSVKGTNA
Procedure: (5) Screening for functional anti-BCMA scFv in T cells: the anti-BCMA scFv was constructed into a bicistronic lentiviral CAR expression vector containing an IRES-truncated EGFR (tEGFR) expression cassette. The lentivirus was produced by transient transfection of 293T cells, followed by purification by ultracentrifugation and concentration. T cells were transduced with the CAR lentivirus to generate CAR-T cells, which were then cultured for 10 days. 10 days after lentivirus transduction, CAR-T cells were collected and stained with 5 μg/mL CD19-Fc protein (Ctrl Fc protein) or BCMA-Fc recombinant protein for 30 min at 4° C. After washing, the CAR-T cells were stained with the anti-human IgG Fc and anti-EGFR mAb. The samples were analyzed using a flow cytometer.

CD40-Fc [2] = molecular target: T2, CD40-Fc (human, UniProt P25942); test: flow cytometry of T cells co-electroporated with 15 µg diabody mRNA and 2 µg M12 CAR mRNA; CD40-Fc + PE-anti-Fc; E1 without mRNA: 0.56
T2 construct: part fused to Fc; staining reagent of the flow cytometry; also called recombinant human CD40-Fc antigen protein

CD40-Fc [3] = molecular target: T2, CD40-Fc; test: flow cytometry of T cells co-electroporated with 15 µg diabody mRNA and 0.5 µg 4D5.BBZ mRNA; CD40-Fc + PE-anti-IgG-Fc; E1 without mRNA: 0.27
[4] = molecular target: T3, CD28 (detection antigen of the BLI assay) (human, UniProt P10747 19-152, limits assumed); test: BLI (GATOR); antibody loaded at 30 nM, antigen 300-37.5 nM
T3 construct: also called the antigen
Description: The affinity kinetics of the humanized antibodies were detected using biolayer interferometry (BLI). The experimental procedures were as follows: [0533] 1. GATOR instrument was run, and the Kinetics experimental mode was selected. [0534] 2. The analysis program was run according to Table 5

[5] = molecular target: T4, recombinant Human/Cynomolgus CD28 (N-6His) (Human/Cynomolgus, UniProt P10747 19-152); test: ELISA; plate coated with CD28 (N-6His) 2 µg/mL; HRP-anti-hFc
T4 construct: Bought protein; also called antigen CD28; not shown: 6His tag at the N-terminus (N-6His)
Procedure: The binding activity of the humanized antibody to the antigen CD28 was detected by the ELISA method. The experimental procedures were as follows: [0525] 1. 30 μL of recombinant Human/Cynomolgus CD28 (N-6His) (Suzhou Novoprotein Scientific Inc., C406) at a concentration of 2 μg/mL was added to each well of an ELISA plate, and the plate was incubated at 4° C. overnight. [0526] 2. The next day, the ELISA plate was washed 3 times with PBST (containing 0.05% Tween-20). [0527] 3. 250 μL of 5% skim milk powder (dissolved in PBS) was added to each well of the ELISA plate, and the plate was incubated at room temperature for 2 h. [0528] 4. The plate was washed 3 times with PBST, antibodies with different dilution ratios were added to the ELISA plate at 30 μL/well, and the plate was incubated at room temperature for 60 min. [0529] 5. The plate was washed 3 times with PBST, 30 μL of HRP-anti-hFc antibody was added to each well, and the plate was incubated at room temperature for 60 min. [0530] 6. The plate was washed 3 times with PBST, 30 μL of TMB was added to each well, and after color development at room temperature, 30 μL of 2 M H₂SO₄ was added to each well to stop the reaction. The plate was read at 450 nm.

| Binder | binding result [1] | also measured |
| --- | --- | --- |
| BCMA28 (scFv, On lentivirus-transduced T cells as CAR; also called anti-BCMA scFv BCMA28) scFv: QSALTQPPSVSEAPRQRVTISCSGSSSNIGQNAVNWYQKLPGKAPKLLIYYNDLVSSGVSDRFSGSKSGTSASLAISGLQSEDEADYYCATWDDSLNGVVFGGGTKVTVLGGGGSGGGGSGGGGSQVQLVQSGPGLVKPSQTLSLTCAISGDSVSSNSAAWNWIRQSPSRGLEWLGRTYYRSKWYNDYAVSVKSRITINPDTSKNQFSLQLNSVTPEDTAVYYCARDYYYGMDVWGQGTTVTVSS | binds |  |
| 4.1 (bispecific antibody, expressed from mRNA in T cells) scFv-G4S-scFv: DIQLTQSPSSLSVSVGDRVTISCRASESVEYYVTSLMQWYQQKPGQAPKLLIFAASNVESGVPSRFSGSGSGTNFTLTISSVQEEDFAMYFCQQSRKVPYTFGGGTKLEIKGGGGSGGGGSGGGGSQVKLQESGPGLVKPSETLSITCTVSGFSLSDYGVHWVRQSPGKGLEWLGVIWAGGGTNYNSALMSRKTISKDNSKSQVFLKMSSLTAADTAVYYCARDKGYSYYYSMDYWGQGTTVTVSSGGGGSQSALTQPPSASGSPGQSVTISCTGTSSDVGAYNFVSWYQQHPGNAPKLIIYDVRKRPSGIPDRFSASKSGNTASLTVSGLQADDEADYYCSSYAGNNNLVFGGGTKLTVLGGGGSGGGGSGGGGSQVQLVQSGAEVKKPGSSVKVSCKASGGTFSSYAISWVRQAPGQGLEWMGMINPSGGTTSYAQKFQGRVTMTRDTSTSTVYMELSSLRPEDTAVYYCARGFRMDQWGQGTLVTVSS |  | % of cells in the positive gate (CD40-Fc [2]): 95.8; % of cells in the positive gate (CD40-Fc [3]): 95.3 |
| BCMA24 (scFv, On lentivirus-transduced T cells as CAR; also called anti-BCMA scFv BCMA24) scFv: QSVLTQPPSASGTPGQRVTISCSGSSSNIGSYSVNWYQQIPGTAPKLLIYSNNQRPSGVPDRFSGSKSGTSASLAISGLQSEDEADYSCAAWDDSLNGVVFGGGTKLTVLGGGGSGGGGSGGGGSQVQLVQSGAEVKKPGSSVKVSCKASGGTFSSYAISWVRQAPGQGLEWMGGIIPIFGTANYAQKFQGRVTITADESTSTAYMELSSLRSEDTAVYYCARGSFYSSVNVWGQGTTVTVSS | binds |  |
| BCMA33 (scFv, On lentivirus-transduced T cells as CAR; also called anti-BCMA scFv BCMA33) scFv: QSALTQPPSASGSPGQSVTISCTGTSSDVGGYNYVSWYQQHPGKAPKLMIYEVSKRPSGVPDRFSGSKSGNTASLTVSGLQAEDEADYFCSSYAGSNNFVVFGGGTKLTVLGGGGSGGGGSGGGGSEVQLVESGGGLVQPGRSLRLSCAASGFTFDDYAMHWVRQAPGKGLEWVSGISWNSGSIGYADSVKGRFTISRDNAKNSLYLQMNSLRAEDTALYYCAKVGASAALGAFDIWGQGTMVTVSS | binds |  |
| BCMA31 (scFv, On lentivirus-transduced T cells as CAR; also called anti-BCMA scFv BCMA31) scFv: QSALTQPPSASGSPGQSVTISCTGTSSDVGTYNYVSWYQQHPGKAPKLMIYDVNQRPSGVPDRFSGSKSGNTASLTVSGLQAEDEADYYCSSYGGSNNLVFGGGTKVTVLGGGGSGGGGSGGGGSEVQLVESGGGLIQPGGSLRLSCAASGFTFSSYWMSWVRQSPGKGLEWVANIKPDGSDKYYVDSVKGRFTISRDNAKNSLDLQMNSLRGEDTAIYYCARGATTYGSWGQGTLVTVSS | binds |  |
| BCMA27 (scFv, On lentivirus-transduced T cells as CAR; also called anti-BCMA scFv BCMA27) scFv: QSALTQPPSASGSPGQSVTISCTGSRSNVGSYNDVSWYQQHPGKAPKLIIYDVDKRPAGVPDRFSGSKSGNTASLTVSGLQAEDDADYYCSSYGGTYSLFVFGTGTELTVLGGGGSGGGGSGGGGSEVQLVESGGDLVQPGGSLRLSCAASGFTFSSYGMHWVRQAPGKGLEWVAVISYDGSNKYYADSVKGRFTISRDNSKNTLYLQMNSLRAEDTAVYYCAKEEFYGDSSYGMDVWGQGTTVTVSS | binds |  |
| huVH5huVL2 (antibody, human IgG1, kappa, V domains shown) VH: QVQLQESGPGLVKPSETLSLTCTVSGFSISDYGVHWIRQPPGKGLEWIGVIWAGGGTNYNPSLKSRVTISVDTSKNQVSLKLSSVTAADTAVYYCARDKGYSYYYSMDYWGQGTTVTVSS VL: DIQLTQSPSSLSASVGDRVTITCRASESVEYYVTSLMQWYQQKPGKAPKLLIFAASNVESGVPSRFSGSGSGTNFTLTISSVQPEDFATYFCQQSRKVPYTFGGGTKLEIKR |  | Kd [4]: 10.8 nM; koff [4]: 0.000909 s⁻¹; kon [4]: 84100 M⁻¹ s⁻¹; EC50 [5]: 0.0151 µg/mL |
| BCMA34 (scFv, On lentivirus-transduced T cells as CAR; also called anti-BCMA scFv BCMA34) scFv: QPGLTQPPSVSKGLRQTATLTCTGNSNNVGNQGAAWLQQHQGHPPKLLSYRNNNRPSGISERFSASRSGNTASLTITGLQPEDEADYYCSAWDSSLSARVFGGGTKLTVLGGGGSGGGGSGGGGSQVQLVQSGAEVKKPGASVKVSCKTSGYTFSNPFVHWVRQAPGQGLEWVGIINLSGGDTLYAQKFQGGVTMTRDTSTNTAYMELTSLTFEDTAVYYCARDQAGFGDSAYWGQGTLVTVSS | binds |  |
| BCMA32 (scFv, On lentivirus-transduced T cells as CAR; also called anti-BCMA scFv BCMA32) scFv: QSALTQPASVSGSPGQSITISCTGTSSDVGGYNYVSWYQQHPGKAPKLMIYDVSKRPSGVSNRFSGSKSGNTASLTISGLQAEDEADYYCSSYTSSSTVVFGGGTKLTVLGGGGSGGGGSGGGGSQVQLQESGAEVKKPGSSVKVSCKASGGTFSRYAISWVRQAPGQGLEWMGGIIPFFGTSDYAQKFQGRVTITADESTSTAYMDLSRLRSEDTAVYYCAVRVATTGTGFYYAMDVWGQGTTVTVSS | binds |  |
| BCMA23 (scFv, On lentivirus-transduced T cells as CAR; also called anti-BCMA scFv BCMA23) scFv: QSALTQPPSASGTPGQRVTISCSGSSPNIGGNSVNWYQQLPGTAPKLLMYTNNQRPSGVPDRFSGSKSGTSASLAISGLQSEDEADYYCAAWDDSLNGVVFGGGTKLTVLGGGGSGGGGSGGGGSQVQLVQSGAEVKKPGESLKISCKGSGYSFTSYWIGWVRQMPGKGLEWMGIIYPGDSDTRYSPSFQGQVTISADKSISTAYLQWSSLKASDTAMYYCARRGGALDYWGQGTLVTVSS | binds |  |
| BCMA22 (scFv, On lentivirus-transduced T cells as CAR; also called anti-BCMA scFv BCMA22) scFv: QSALTQPASVSGSPGQSITISCTGTSSDVGGYNYVSWYQQHPGKAPKLMIYEVTNRPSGVSNRFSGSKSGNTASLTISGLQAEDEAHYYCISYTSSSTLDYVFGTGTKVTVLGGGGSGGGGSGGGGSEVQLVESGPGLVKPSGTLSLTCAVSGGSISSSNWWSWVRQPPGKGLEWIGEIYHSGSTNYNPSLKSRVTISVDKSKNQFSLKLSSVTAADTAVYYCARVGSGYSYGYGDRVLDYWGQGTLVTVSS | binds |  |
| BCMA30 (scFv, On lentivirus-transduced T cells as CAR; also called anti-BCMA scFv BCMA30) scFv: DIQMTQSPSFLSASVGDRVTITCRASQGISSYLAWYQQKPGKAPKLLIYAASTLQSGVPSRFSGSGSGTEFTLTISSLQPEDFATYYCQQLNSYPPWTFGQGTKVEIKGGGGSGGGGSGGGGSQVQLVQSGAEVKKPGESLKISCKGSGYRFTSYWIGWVRQMPGKGLEWMGIIYPGDSDTRYSPPFQGQVTISADKSIDTAYLQWSSLKASDTAMYYCARLDASGSQRGGMDVWGQGTTVTVSS | binds |  |
| 4.2 (bispecific antibody, expressed from mRNA in T cells) scFv-G4S-scFv: DIQLTQSPSSLSVSVGDRVTISCRASESVEYYVTSLMQWYQQKPGQAPKLLIFAASNVESGVPSRFSGSGSGTNFTLTISSVQEEDFAMYFCQQSRKVPYTFGGGTKLEIKGGGGSGGGGSGGGGSQVKLQESGPGLVKPSETLSITCTVSGFSLSDYGVHWVRQSPGKGLEWLGVIWAGGGTNYNSALMSRKTISKDNSKSQVFLKMSSLTAADTAVYYCARDKGYSYYYSMDYWGQGTTVTVSSGGGGSQVQLVQSGAEVKKPGSSVKVSCKASGGTFSSYAISWVRQAPGQGLEWMGMINPSGGTTSYAQKFQGRVTMTRDTSTSTVYMELSSLRPEDTAVYYCARGFRMDQWGQGTLVTVSSGGGGSGGGGSGGGGSQSALTQPPSASGSPGQSVTISCTGTSSDVGAYNFVSWYQQHPGNAPKLIIYDVRKRPSGIPDRFSASKSGNTASLTVSGLQADDEADYYCSSYAGNNNLVFGGGTKLTVL |  | % of cells in the positive gate (CD40-Fc [2]): 97.7; % of cells in the positive gate (CD40-Fc [3]): 98.2 |
